From publication PMC10397247

Key:
Assay in all cases: two-hybrid library CCmax;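 further: natural log of median RNA to DNA barcode read ratio; higher means stronger binding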
[1] = target: T1, 4H710-AA; details: mean of both orientations
T1 chain: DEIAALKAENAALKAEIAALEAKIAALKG

[2] = target: T2, 4H3395-AA; details: mean of both orientations
T2 chain: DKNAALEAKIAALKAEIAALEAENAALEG

[3] = target: T3, 4H3753-AA; details: mean of both orientations
T3 chain: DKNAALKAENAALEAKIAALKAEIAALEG

[4] = target: T4, 4H94-AA; details: mean of both orientations
T4 chain: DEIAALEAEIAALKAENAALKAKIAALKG

[5] = target: T5, 4H3590-AA; details: mean of both orientations
T5 chain: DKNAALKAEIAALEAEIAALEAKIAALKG

[6] = target: T6, 4H458-AA; details: mean of both orientations
T6 chain: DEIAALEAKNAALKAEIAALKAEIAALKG

[7] = target: T7, 4H3865-AA; details: mean of both orientations
T7 chain: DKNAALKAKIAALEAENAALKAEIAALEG

[8] = target: T8, 4H2649-AA; details: mean of both orientations
T8 chain: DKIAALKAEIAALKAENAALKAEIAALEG

[9] = target: T9, 4H3381-AA; details: mean of both orientations
T9 chain: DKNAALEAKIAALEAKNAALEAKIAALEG

[10] = target: T10, 4H485-AA; details: mean of both orientations
T10 chain: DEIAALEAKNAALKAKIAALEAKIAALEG

[11] = target: T11, 4H629-AA; details: mean of both orientations
T11 chain: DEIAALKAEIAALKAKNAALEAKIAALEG

[12] = target: T12, 4H2274-AA
T12 chain: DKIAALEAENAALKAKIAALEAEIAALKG

[13] = target: T13, 4H2473-AA; details: mean of both orientations
T13 chain: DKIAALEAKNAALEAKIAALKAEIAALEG

[14] = target: T14, 4H891-AA; details: mean of both orientations
T14 chain: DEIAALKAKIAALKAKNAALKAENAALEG

[15] = target: T15, 4H2438-AA; details: mean of both orientations
T15 chain: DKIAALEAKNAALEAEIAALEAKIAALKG

[16] = target: T16, 4H909-AA; details: mean of both orientations
T16 chain: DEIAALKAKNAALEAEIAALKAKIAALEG

[17] = target: T17, 4H3016-AA; details: mean of both orientations
T17 chain: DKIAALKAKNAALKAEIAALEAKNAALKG

[18] = target: T18, 4H310-AA; details: mean of both orientations
T18 chain: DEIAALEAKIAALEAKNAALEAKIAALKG

[19] = target: T19, 4H3410-AA; details: mean of both orientations
T19 chain: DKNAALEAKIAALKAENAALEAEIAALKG

[20] = target: T20, 4H2725-AA; details: mean of both orientations
T20 chain: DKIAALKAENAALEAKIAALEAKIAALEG

[21] = target: T21, 4H536-AA; details: mean of both orientations
T21 chain: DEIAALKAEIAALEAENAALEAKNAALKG

[22] = target: T22, 4H2277-AA
T22 chain: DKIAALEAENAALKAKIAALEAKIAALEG

[23] = target: T23, 4H3697-AA; details: mean of both orientations
T23 chain: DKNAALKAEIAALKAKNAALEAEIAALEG

[24] = target: T24, 4H2865-AA; details: mean of both orientations
T24 chain: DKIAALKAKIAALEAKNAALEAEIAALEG

[25] = target: T25, 4H930-AA; details: mean of both orientations
T25 chain: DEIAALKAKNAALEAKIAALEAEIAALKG

[26] = target: T26, 4H570-AA; details: mean of both orientations
T26 chain: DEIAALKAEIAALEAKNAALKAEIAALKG

[27] = target: T27, 4H2389-AA; details: mean of both orientations
T27 chain: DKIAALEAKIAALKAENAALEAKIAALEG

[28] = target: T28, 4H3165-AA; details: mean of both orientations
T28 chain: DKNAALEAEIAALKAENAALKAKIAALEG

[29] = target: T29, 4H3130-AA; details: mean of both orientations
T29 chain: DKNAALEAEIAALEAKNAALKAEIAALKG

[30] = target: T30, 4H850-AA; details: mean of both orientations
T30 chain: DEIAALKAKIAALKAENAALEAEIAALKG

[31] = target: T31, 4H745-AA; details: mean of both orientations
T31 chain: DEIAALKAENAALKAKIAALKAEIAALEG

[32] = target: T32, 4H2698-AA; details: mean of both orientations
T32 chain: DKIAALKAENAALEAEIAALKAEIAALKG

[33] = target: T33, 4H797-AA; details: mean of both orientations
T33 chain: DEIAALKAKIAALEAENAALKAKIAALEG

[34] = target: T34, 4H2330-AA; details: mean of both orientations
T34 chain: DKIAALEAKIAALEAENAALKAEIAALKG

[35] = target: T35, 4H3120-AA; details: mean of both orientations
T35 chain: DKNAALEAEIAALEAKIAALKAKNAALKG

[36] = target: T36, 4H3009-AA; details: mean of both orientations
T36 chain: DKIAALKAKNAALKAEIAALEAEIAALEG

[37] = target: T37, 4H429-AA; details: mean of both orientations
T37 chain: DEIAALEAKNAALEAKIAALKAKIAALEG

[38] = target: T38, 4H794-AA; details: mean of both orientations
T38 chain: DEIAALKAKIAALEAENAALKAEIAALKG

[39] = target: T39, 4H717-AA; details: mean of both orientations
T39 chain: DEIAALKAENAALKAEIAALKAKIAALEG

[40] = target: T40, 4H2505-AA; details: mean of both orientations
T40 chain: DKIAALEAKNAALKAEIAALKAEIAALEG

[41] = target: T41, 4H780-AA
T41 chain: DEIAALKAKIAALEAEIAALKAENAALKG

[42] = target: T42, 4H2393-AA
T42 chain: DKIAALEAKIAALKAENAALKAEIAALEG

[43] = target: T43, 4H2575-AA; details: mean of both orientations
T43 chain: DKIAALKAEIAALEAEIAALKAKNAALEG

[44] = target: T44, 4H3427-AA; details: mean of both orientations
T44 chain: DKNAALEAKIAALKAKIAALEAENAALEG

[45] = target: T45, 4H317-AA; details: mean of both orientations
T45 chain: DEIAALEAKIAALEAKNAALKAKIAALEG

[46] = target: T46, 4H605-AA; details: mean of both orientations
T46 chain: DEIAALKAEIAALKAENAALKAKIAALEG

[47] = target: T47, 4H2729-AA; details: mean of both orientations
T47 chain: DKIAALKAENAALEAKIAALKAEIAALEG

[48] = target: T48, 4H3655-AA; details: mean of both orientations
T48 chain: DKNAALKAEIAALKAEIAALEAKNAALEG

[49] = target: T49, 4H342-AA; details: mean of both orientations
T49 chain: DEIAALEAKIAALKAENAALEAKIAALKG

[50] = target: T50, 4H2949-AA; details: mean of both orientations
T50 chain: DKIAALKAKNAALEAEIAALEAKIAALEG

[51] = target: T51, 4H2883-AA; details: mean of both orientations
T51 chain: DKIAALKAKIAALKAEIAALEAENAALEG

[52] = target: T52, 4H48-AA; details: mean of both orientations
T52 chain: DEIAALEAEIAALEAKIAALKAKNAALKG

[53] = target: T53, 4H3343-AA; details: mean of both orientations
T53 chain: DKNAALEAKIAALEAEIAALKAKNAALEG

[54] = target: T54, 4H678-AA; details: mean of both orientations
T54 chain: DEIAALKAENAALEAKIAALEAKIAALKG

[55] = target: T55, 4H234-AA; details: mean of both orientations
T55 chain: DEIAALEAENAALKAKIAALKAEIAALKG

[56] = target: T56, 4H3606-AA; details: mean of both orientations
T56 chain: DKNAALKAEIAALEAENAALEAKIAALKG

[57] = target: T57, 4H2642-AA; details: mean of both orientations
T57 chain: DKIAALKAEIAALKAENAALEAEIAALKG

[58] = target: T58, 4H335-AA; details: mean of both orientations
T58 chain: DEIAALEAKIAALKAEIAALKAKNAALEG

[59] = target: T59, 4H881-AA; details: mean of both orientations
T59 chain: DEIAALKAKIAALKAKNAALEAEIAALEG

[60] = target: T60, 4H2466-AA; details: mean of both orientations
T60 chain: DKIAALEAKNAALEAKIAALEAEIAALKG

[61] = target: T61, 4H2754-AA; details: mean of both orientations
T61 chain: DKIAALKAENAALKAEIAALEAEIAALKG

[62] = target: T62, 4H566-AA; details: mean of both orientations
T62 chain: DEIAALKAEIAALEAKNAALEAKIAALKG

[63] = target: T63, 4H993-AA; details: mean of both orientations
T63 chain: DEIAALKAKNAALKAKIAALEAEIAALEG

[64] = target: T64, 4H2837-AA; details: mean of both orientations
T64 chain: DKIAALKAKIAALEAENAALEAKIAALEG

[65] = target: T65, 4H2944-AA; details: mean of both orientations
T65 chain: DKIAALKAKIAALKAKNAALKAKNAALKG

[66] = target: T66, 4H2617-AA; details: mean of both orientations
T66 chain: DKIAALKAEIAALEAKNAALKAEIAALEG

[67] = target: T67, 4H3112-AA; details: mean of both orientations
T67 chain: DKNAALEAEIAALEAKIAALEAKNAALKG

[68] = target: T68, 4H906-AA; details: mean of both orientations
T68 chain: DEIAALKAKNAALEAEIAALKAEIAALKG

[69] = target: T69, 4H2354-AA; details: mean of both orientations
T69 chain: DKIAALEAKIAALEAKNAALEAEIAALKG

[70] = target: T70, 4H3921-AA; details: mean of both orientations
T70 chain: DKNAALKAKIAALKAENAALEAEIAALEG

[71] = target: T71, 4H3627-AA; details: mean of both orientations
T71 chain: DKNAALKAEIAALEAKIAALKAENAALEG

[72] = target: T72, 4H3844-AA; details: mean of both orientations
T72 chain: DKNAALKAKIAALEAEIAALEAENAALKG

[73] = target: T73, 4H454-AA; details: mean of both orientations
T73 chain: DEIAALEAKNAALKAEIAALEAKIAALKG

With DKIAALEAENAALKAKIAALEAEIAALKG [4H2274-AA] the interaction score [1] was 0.53, the interaction score [2] was -1.6 and the interaction score [3] was -1.17. The interaction score [4] was -1.32, the interaction score [5] was -0.977 and the interaction score [6] was 0.0218. The interaction score [7] was -0.926, the interaction score [8] was -1.69 and the interaction score [9] was -1.35. It also gave an interaction score [10] of -0.34, an interaction score [11] of -1.47 and an interaction score [12] of 2.45. For the same binder, the interaction score [13] was -0.485, the interaction score [14] was -1.73 and the interaction score [15] was 0.189. It also gave an interaction score [16] of -1.73, an interaction score [17] of -1.01 and an interaction score [18] of -1.25. For the same binder, the interaction score [19] was -1.36, the interaction score [20] was 0.181 and the interaction score [21] was -1.54. The interaction score [22] was 0.21, the interaction score [23] was -1.45 and the interaction score [24] was -1.31. It also gave an interaction score [25] of -1.05, an interaction score [26] of -1.8 and an interaction score [27] of -0.987. The interaction score [28] was -1.19, the interaction score [29] was -1.87 and the interaction score [30] was -1.39. The interaction score [31] was 0.497, the interaction score [32] was 0.894 and the interaction score [33] was -1.27. For the same binder, the interaction score [34] was -1.13, the interaction score [35] was -1.33 and the interaction score [36] was 0.108.

DKIAALEAENAALKAKIAALEAKIAALEG [4H2277-AA] gave an interaction score [37] of -0.713, an interaction score [38] of -1.24 and an interaction score [39] of -0.927. For the same binder, the interaction score [40] was -0.635, the interaction score [41] was -1.36 and the interaction score [42] was -1.39. The interaction score [43] was -1.59, the interaction score [44] was -1.51 and the interaction score [45] was -1.02. It also gave an interaction score [46] of -1.38, an interaction score [47] of 0.856 and an interaction score [48] of -1.32. For the same binder, the interaction score [49] was -0.907, the interaction score [50] was 0.749 and the interaction score [51] was -1.6. For the same binder, the interaction score [52] was -1.36, the interaction score [53] was -1.26 and the interaction score [54] was 0.351. For the same binder, the interaction score [55] was -0.0407, the interaction score [56] was -1.85 and the interaction score [57] was -0.59. It also gave an interaction score [58] of -1.2, an interaction score [59] of -1.05 and an interaction score [22] of 1.95. The interaction score [60] was -1.07, the interaction score [61] was 0.512 and the interaction score [62] was -0.827. For the same binder, the interaction score [63] was 0.398, the interaction score [64] was -1.08 and the interaction score [65] was -1.56. It also gave an interaction score [66] of -1.68, an interaction score [67] of -1.43 and an interaction score [68] of -1.51. For the same binder, the interaction score [69] was -1.26, the interaction score [70] was -1.56 and the interaction score [71] was -1.28. For the same binder, the interaction score [72] was -1.39 and the interaction score [73] was 1.29.
